Assay results published in patent US20050058640A1 (BAXTER INTERNATIONAL, published 2005).

Legend:
[1] = target: factor VIII / factor VIIIa (recombinant human coagulation factor VIII, thrombin-activated) (UniProt P00451)
[2] = target: T1, human factor IXa (human, UniProt P00740 47-191; P00740 227-461); experiment: SPR (BIACORE), antibody captured by anti-mouse Fc on CM5 chip, FIXa in flow, steady state analysis
T1 construct: also called FIXa; F IXa
Excerpt: Polyclonal anti-mouse Fc antibodies were immobilized on a CM5 sensor chip and saturated with the respective monoclonal antibody. As a reference, a non-specific mouse IgG was used.

[3] = target: T2, murine FIX (murine, UniProt P16294 47-471); experiment: ELISA and Western blot
T2 construct: also called murine factor IX

[4] = target: T3, bovine FIX (bovine, UniProt P00741 47-462); experiment: ELISA and Western blot
T3 construct: also called bovine factor IX

[5] = target: T1, human factor IXa; experiment: cell-based or functional assay
[6] = target: T1, human factor IXa; experiment: cell-based or functional assay; remark: listed apart in the source

T1 sequence (P00740 47-191 limits assumed, chain 1 of 2): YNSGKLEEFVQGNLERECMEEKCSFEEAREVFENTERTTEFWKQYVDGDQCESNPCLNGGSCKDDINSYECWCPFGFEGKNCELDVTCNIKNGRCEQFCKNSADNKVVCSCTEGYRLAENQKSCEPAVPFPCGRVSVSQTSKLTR
T1 sequence (P00740 227-461 limits assumed, chain 2 of 2): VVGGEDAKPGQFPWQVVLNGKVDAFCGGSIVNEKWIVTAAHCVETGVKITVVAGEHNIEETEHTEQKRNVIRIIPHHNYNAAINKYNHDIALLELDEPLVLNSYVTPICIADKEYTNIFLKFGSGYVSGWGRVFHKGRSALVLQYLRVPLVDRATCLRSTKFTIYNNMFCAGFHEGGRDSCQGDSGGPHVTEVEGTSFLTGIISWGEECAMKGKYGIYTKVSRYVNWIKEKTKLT
T2 sequence (P16294 47-471 limits assumed): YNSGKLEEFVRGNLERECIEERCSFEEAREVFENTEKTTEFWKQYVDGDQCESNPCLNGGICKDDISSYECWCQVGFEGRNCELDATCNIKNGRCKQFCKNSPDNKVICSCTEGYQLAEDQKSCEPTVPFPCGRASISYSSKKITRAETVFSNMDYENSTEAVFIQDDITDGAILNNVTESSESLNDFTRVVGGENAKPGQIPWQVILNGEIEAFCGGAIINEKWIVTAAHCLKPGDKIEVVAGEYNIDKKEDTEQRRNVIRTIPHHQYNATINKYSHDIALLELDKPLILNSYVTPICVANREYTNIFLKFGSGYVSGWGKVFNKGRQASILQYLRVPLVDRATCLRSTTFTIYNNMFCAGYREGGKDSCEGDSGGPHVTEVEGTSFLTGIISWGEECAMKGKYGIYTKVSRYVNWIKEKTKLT
factor VIII / factor VIIIa (recombinant human coagulation factor VIII, thrombin-activated), sequence (P00451 20-2351): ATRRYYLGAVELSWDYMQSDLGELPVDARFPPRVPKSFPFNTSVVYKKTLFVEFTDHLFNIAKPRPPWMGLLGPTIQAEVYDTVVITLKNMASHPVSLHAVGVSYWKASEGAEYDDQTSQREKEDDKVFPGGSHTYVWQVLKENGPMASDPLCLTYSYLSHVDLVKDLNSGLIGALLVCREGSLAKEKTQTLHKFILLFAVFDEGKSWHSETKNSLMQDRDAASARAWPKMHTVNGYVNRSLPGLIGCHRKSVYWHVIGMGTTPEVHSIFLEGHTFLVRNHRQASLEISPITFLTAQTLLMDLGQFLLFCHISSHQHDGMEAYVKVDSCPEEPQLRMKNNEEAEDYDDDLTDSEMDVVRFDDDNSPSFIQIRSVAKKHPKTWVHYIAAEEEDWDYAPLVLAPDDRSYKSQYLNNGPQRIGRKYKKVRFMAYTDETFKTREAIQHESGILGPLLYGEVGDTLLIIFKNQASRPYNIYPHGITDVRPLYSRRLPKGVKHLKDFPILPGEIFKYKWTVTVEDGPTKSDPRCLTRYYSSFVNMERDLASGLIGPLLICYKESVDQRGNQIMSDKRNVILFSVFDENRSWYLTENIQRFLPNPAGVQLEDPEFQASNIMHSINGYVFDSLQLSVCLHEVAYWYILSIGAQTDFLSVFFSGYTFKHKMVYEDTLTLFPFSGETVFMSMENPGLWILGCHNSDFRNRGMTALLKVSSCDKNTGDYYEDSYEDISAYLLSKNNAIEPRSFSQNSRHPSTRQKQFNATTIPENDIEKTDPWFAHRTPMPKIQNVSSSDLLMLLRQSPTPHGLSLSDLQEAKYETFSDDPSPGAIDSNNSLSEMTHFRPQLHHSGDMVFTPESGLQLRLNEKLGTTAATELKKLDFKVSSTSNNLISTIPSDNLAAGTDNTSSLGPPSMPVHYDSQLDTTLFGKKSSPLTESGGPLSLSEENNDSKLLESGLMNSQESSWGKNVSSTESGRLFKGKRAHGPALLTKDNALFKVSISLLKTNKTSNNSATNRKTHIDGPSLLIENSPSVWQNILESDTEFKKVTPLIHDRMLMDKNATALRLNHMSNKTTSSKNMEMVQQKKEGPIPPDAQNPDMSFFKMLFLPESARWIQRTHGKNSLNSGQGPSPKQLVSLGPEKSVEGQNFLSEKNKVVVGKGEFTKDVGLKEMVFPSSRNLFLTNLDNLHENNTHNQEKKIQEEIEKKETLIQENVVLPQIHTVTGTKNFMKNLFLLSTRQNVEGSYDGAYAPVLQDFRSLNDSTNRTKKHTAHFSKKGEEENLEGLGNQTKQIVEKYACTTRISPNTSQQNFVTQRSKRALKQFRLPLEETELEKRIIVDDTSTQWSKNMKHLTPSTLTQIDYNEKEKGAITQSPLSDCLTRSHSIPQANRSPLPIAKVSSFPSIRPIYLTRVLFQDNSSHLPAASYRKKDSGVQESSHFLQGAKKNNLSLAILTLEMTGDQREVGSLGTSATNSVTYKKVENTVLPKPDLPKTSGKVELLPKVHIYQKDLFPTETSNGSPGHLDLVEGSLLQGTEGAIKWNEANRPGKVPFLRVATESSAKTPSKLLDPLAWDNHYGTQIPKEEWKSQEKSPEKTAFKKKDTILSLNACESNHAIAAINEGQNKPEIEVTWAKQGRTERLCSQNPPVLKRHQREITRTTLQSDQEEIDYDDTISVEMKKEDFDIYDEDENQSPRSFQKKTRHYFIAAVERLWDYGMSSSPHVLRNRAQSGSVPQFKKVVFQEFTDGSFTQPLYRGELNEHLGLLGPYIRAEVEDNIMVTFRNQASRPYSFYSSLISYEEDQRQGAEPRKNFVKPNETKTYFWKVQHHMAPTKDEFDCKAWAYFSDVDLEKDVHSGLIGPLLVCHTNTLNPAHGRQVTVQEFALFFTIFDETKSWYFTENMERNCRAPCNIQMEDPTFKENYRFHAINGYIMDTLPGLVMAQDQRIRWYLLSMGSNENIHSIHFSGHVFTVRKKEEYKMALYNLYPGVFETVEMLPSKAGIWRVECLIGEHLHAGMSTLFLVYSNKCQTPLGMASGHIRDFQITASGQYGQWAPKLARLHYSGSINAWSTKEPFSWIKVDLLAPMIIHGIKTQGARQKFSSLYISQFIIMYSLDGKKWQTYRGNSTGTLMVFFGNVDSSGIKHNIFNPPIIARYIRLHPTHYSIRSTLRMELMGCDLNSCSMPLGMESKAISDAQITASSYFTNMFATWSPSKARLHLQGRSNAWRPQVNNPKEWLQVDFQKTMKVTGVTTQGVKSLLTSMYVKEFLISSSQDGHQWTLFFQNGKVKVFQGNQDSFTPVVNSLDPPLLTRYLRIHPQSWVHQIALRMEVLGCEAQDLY
T3 sequence (P00741 47-462 limits assumed): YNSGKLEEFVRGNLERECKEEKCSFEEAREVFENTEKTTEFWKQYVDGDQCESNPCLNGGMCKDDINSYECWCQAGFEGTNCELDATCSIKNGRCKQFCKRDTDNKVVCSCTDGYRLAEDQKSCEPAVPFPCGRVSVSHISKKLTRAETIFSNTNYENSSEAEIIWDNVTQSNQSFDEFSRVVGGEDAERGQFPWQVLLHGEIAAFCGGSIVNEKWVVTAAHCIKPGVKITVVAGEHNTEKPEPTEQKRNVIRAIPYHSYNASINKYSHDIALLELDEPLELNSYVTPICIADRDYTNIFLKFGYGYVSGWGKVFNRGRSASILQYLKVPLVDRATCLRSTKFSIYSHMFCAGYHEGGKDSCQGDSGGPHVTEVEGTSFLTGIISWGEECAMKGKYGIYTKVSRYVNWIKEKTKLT

| Molecule | decrease of Km of FIXa [1] | Kd [2] [nM] | binding result [3] | binding result [4] | KM [5] [µM] | kcat [5] [s⁻¹] | kcat/KM [5] [M⁻¹ s⁻¹] | enhancement of the rate of FXa formation [6] [fold] | increase of kcat of FX activation by FIXa [6] [fold] |
| --- | --- | --- | --- | --- | --- | --- | --- | --- | --- |
| human factor IXa | approximately 2.5-fold | – | – | – | – | – | – | – | – |
| antibody 224F3 (antibody, V domains shown) VH: QVQMQQSGAELVKPGASVKLSCKASGYTFTSQDINWVRQRPEQGLEWIGWIFPGDGSTKYNEKLKGKATLTTDKSSSTAFMQLSRLTSEDSAVYFCARSAYYRYDGSYYYAMDYWGQGTSVTVSS VL: QIVLTQSPAIMSASLGEEITLTCSASSSVSYMLWYQQKSGTSPKLLIYTTSNLASGVPSRFSGTGSGTFYSLTISSVEAEDAADYYCHQWSSYPRTFGGGTKLEIKR | – | 0.477 | no binding | binds | 0.048 | 0.000883 | 18300 | 10 | ~10 |
